Data: PMC7279403, “Zygotic Vsx1 Plays a Key Role in Defining V2a Interneuron Sub-Lineage by Directly Repressing tal1 Transcription in Zebrafish”

How the values were obtained:
[1] = target: T1, Vsx1 homeodomain (Vsx1-Homeodomain-His) (zebrafish, UniProt O42250 132-224); experiment: competition; 500-fold or more excess against biotin site 12 probe; no competition; LightShift Chemiluminescent EMSA kit (Pierce), 6% native PAGE; binding buffer as in He et al. [23], salt, pH and temperature not given; conditions: protein: recombinant; tags: His in the Results; label: none
T1 sequence (O42250 132-224): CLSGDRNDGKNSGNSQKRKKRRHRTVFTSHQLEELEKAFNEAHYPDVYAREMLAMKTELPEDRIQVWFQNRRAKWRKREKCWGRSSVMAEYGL

[2] = target: T1, Vsx1 homeodomain (Vsx1-Homeodomain-His); experiment: competition; 500-fold excess against biotin site 12 probe; only weak complex left; LightShift Chemiluminescent EMSA kit (Pierce), 6% native PAGE; binding buffer as in He et al. [23], salt, pH and temperature not given; conditions: protein: recombinant; tags: His in the Results; label: none
[3] = target: T1, Vsx1 homeodomain (Vsx1-Homeodomain-His); experiment: competition; 500-fold or more excess against biotin site 14 probe; no competition; LightShift Chemiluminescent EMSA kit (Pierce), 6% native PAGE; binding buffer as in He et al. [23], salt, pH and temperature not given; conditions: protein: recombinant; tags: His in the Results; label: none
[4] = target: T1, Vsx1 homeodomain (Vsx1-Homeodomain-His); experiment: EMSA; LightShift Chemiluminescent EMSA kit (Pierce), 6% native PAGE; binding buffer as in He et al. [23], salt, pH and temperature not given; conditions: protein: recombinant; tags: His in the Results; label: biotin 5' end (labeled probe)
[5] = target: T1, Vsx1 homeodomain (Vsx1-Homeodomain-His); experiment: competition; 500-fold excess against biotin site 14 probe; only weak complex left; LightShift Chemiluminescent EMSA kit (Pierce), 6% native PAGE; binding buffer as in He et al. [23], salt, pH and temperature not given; conditions: protein: recombinant; tags: His in the Results; label: none

B1: tal1 site 12 mutant competitor (TAATTA to TCGATA) (dsDNA)
DNA 1: TGGCCGCATCGATCGATTCTGATTGAG
DNA 2: CTCAATCAGAATCGATCGATGCGGCCA
binding result [1]: no binding

B2: tal1 site 12 unlabeled wild-type competitor (dsDNA)
DNA 1: TGGCCGCATAATTAATTTCTGATTGAG
DNA 2: CTCAATCAGAAATTAATTATGCGGCCA
binding result [2]: binds

B3: tal1 site 14 mutant competitor (TAATTA to TCGATA) (dsDNA)
DNA 1: ACGCAGATCATCGATAGGCGTTTGATC
DNA 2: GATCAAACGCCTATCGATGATCTGCGT
binding result [3]: no binding

B4: tal1 binding site 14 probe (dsDNA)
DNA 1: ACGCAGATCATAATTAGGCGTTTGATC
DNA 2: GATCAAACGCCTAATTATGATCTGCGT
binding result [4]: binds

B5: tal1 binding site 12 probe (dsDNA)
DNA 1: TGGCCGCATAATTAATTTCTGATTGAG
DNA 2: CTCAATCAGAAATTAATTATGCGGCCA
binding result [4]: binds

B6: tal1 site 14 unlabeled wild-type competitor (dsDNA)
DNA 1: ACGCAGATCATAATTAGGCGTTTGATC
DNA 2: GATCAAACGCCTAATTATGATCTGCGT
binding result [5]: binds
